Experimental data from PMC6261512 (Protein expression and purification, 2018).

Target: the molecule itself
Experiment: SEC

B1: MBP-5-HT3A-ICD chimera (maltose-binding protein and the intracellular domain of the mouse serotonin type 3A receptor) (domain or fragment, UniProt P23979 327-466, looked up)
chain: ETIFIVRLVHKQDLQRPVPDWLRHLVLDRIAWILCLGEQPMAHRPPATFQANKTDDCSGSDLLPAMGNHCSHVGGPQDLEKTPRGRGSPLPPPREASLAVRGLLQELSSIRHFLEKRDEMREVARDWLRVGYVLDRLLFR
B1 was tested, and the “stoichiometry N” value was 5.
